{"source": "patent US20190218261A1", "about": "“TARGETED ENHANCED DNA DEMETHYLATION” (The Jackson Laboratory, priority 2016, published 2019)", "molecules": {"B1": {"name": "PUFa-VP64: NLS-PUFa-VP64 fusion; SEQ ID NO:32 (protein)", "chain": "MGILPPKKKRKVSRGRSRLLEDFRNNRYPNLQLREIAGHIMEFSQDQHGSRFIQLKLERATPAERQLVFNEILQAAYQLMVDVFGNYVIQKFFEFGSLEQKLALAERIRGHVLSLALQMYGSRVIEKALEFIPSDQQNEMVRELDGHVLKCVKDQNGNHVVQKCIECVQPQSLQFIIDAFKGQVFALSTHPYGCRVIQRILEHCLPDQTLPILEELHQHTEQLVQDQYGNYVIQHVLEHGRPEDKSKIVAEIRGNVLVLSQHKFASNVVEKCVTHASRTERAVLIDEVCTMNDGPHSALYTMMKDQYANYVVQKMIDVAEPGQRKIVMHKIRPHIATLRKYTYGKHILAKLEKYYMKNGVDLGGPAGSGRADALDDFDLDMLGSDALDDFDLDMLGSDALDDFDLDMLGSDALDDFDLDMLYID"}, "B2": {"name": "PUFb-VP64: NLS-PUFb-VP64 fusion; SEQ ID NO:33 (protein)", "chain": "MGILPPKKKRKVSRGRSRLLEDFRNNRYPNLQLREIAGHIMEFSQDQHGSRFIQLKLERATPAERQLVFNEILQAAYQLMVDVFGNYVIQKFFEFGSLEQKLALAERIRGHVLSLALQMYGCRVIQKALEFIPSDQQNEMVRELDGHVLKCVKDQNGNHVVQKCIECVQPQSLQFIIDAFKGQVFALSTHPYGCRVIQRILEHCLPDQTLPILEELHQHTEQLVQDQYGSYVIEHVLEHGRPEDKSKIVAEIRGNVLVLSQHKFANNVVQKCVTHASRTERAVLIDEVCTMNDGPHSALYTMMKDQYANYVVQKMIDVAEPGQRKIVMHKIRPHIATLRKYTYGKHILAKLEKYYMKNGVDLGGPAGSGRADALDDFDLDMLGSDALDDFDLDMLGSDALDDFDLDMLGSDALDDFDLDMLYID"}, "B3": {"name": "PUF^531: PUF domain with mutations Q867E/Q939E/C935S/Q1011E/C1007S; SEQ ID NO:22 (protein)", "chain": "GRSRLLEDFRNNRYPNLQLREIAGHIMEFSQDQHGSRFIELKLERATPAERQLVFNEILQAAYQLMVDVFGNYVIQKFFEFGSLEQKLALAERIRGHVLSLALQMYGSRVIEKALEFIPSDQQNEMVRELDGHVLKCVKDQNGNHVVQKCIECVQPQSLQFIIDAFKGQVFALSTHPYGSRVIERILEHCLPDQTLPILEELHQHTEQLVQDQYGNYVIQHVLEHGRPEDKSKIVAEIRGNVLVLSQHKFASNVVEKCVTHASRTERAVLIDEVCTMNDGPHSALYTMMKDQYANYVVQKMIDVAEPGQRKIVMHKIRPHIATLRKYTYGKHILAKLEKYYMKNGVDLG"}, "B4": {"name": "Dnmt3a-PUF: Dnmt3a catalytic region fused to N-terminus of PUFa; SEQ ID NO:65 (protein)", "chain": "MGPANHDQEFDPPKVYPPVPAEKRKPIRVLSLFDGIATGLLVLKDLGIQVDRYIASEVCEDSITVGMVRHQGKIMYVGDVRSVTQKHIQEWGPFDLVIGGSPCNDLSIVNPARKGLYEGTGRLFFEFYRLLHDARPKEGDDRPFFWLFENVVAMGVSDKRDISRFLESNPVMIDAKEVSAAHRARYFWGNLPGMNRPLASTVNDKLELQECLEHGRIAKFSKVRTITTRSNSIKQGKDQHFPVFMNEKEDILWCTEMERVFGFPVHYTDVSNMSRLARQRLLGRSWSVPVIRHLFAPLKEYFACVIDGGGGSDPKKKRKVDPKKKRKVDPKKKRKVGSTGSRNDGGGGSGGGGSGGGGSGRAGILPPKKKRKVSRGRSRLLEDFRNNRYPNLQLREIAGHIMEFSQDQHGSRFIQLKLERATPAERQLVFNEILQAAYQLMVDVFGNYVIQKFFEFGSLEQKLALAERIRGHVLSLALQMYGSRVIEKALEFIPSDQQNEMVRELDGHVLKCVKDQNGNHVVQKCIECVQPQSLQFIIDAFKGQVFALSTHPYGCRVIQRILEHCLPDQTLPILEELHQHTEQLVQDQYGNYVIQHVLEHGRPEDKSKIVAEIRGNVLVLSQHKFASNVVEKCVTHASRTERAVLIDEVCTMNDGPHSALYTMMKDQYANYVVQKMIDVAEPGQRKIVMHKIRPHIATLRKYTYGKHILAKLEKYYMKNGVDLGDPKKKRKVDPKKKRKVGGRGGGGSGGGGSGGGGSGPA"}}, "key": {"[1]": {"test_system": "CpGs of the hMLH1 promoter region", "experiment": "Bisulfite conversion and sequencing of hMLH1 promoter", "format": "cell-based, human", "conditions": "HEK293T; Casilio-ME days 3-6 post transfection; AzaC treatment for 6 days", "excerpt": "Casilio-mediated delivery of demethylation enzymes alters methylation state of targeted genomic locus. Evidence that the shown Casilio-ME-induced activation of hMLH1 transcription is a result of TET1-mediated cytosine demethylation within the targeted promoter region came from DNA sequencing of hMLH1 promoter after bisulfite conversion. Bisulfite treatment of genomic DNA deaminates unmethylated cytosines to produce uracils that are subsequently replicated as thymine. However, methylated cytosines are protected from conversion to uracils, thus allowing one to determine cytosine methylation states at single-nucleotide resolution by direct sequencing.\nTo assess changes in methylation states of CpG island within hMLH1 promoter region after Casilio-ME-mediated transcription activation, time course experiment were carried out where cells were collected 3, 4, 5, and 6 days post transfection, for analysis of cytosine methylation as well as transcription activation, and protein expression. HEK293T were transfected with Casilio-ME components that includes Ct-fusion PUFa-TET1 effector and a combination of 2 sgRNAs (RNA guides 3 and 7).\nBisulfite conversion and sequencing. Genomic DNAs were extracted using all AllPrep DNA/RNA/Protein Mini Kit according the manufacturer's instructions (Qiagen). […]"}, "[2]": {"test_system": "TetO::tdTomato transgene in HEK293T/TetO::tdTomato cell line", "experiment": "TetO::tdTomato transgene activation measured by FACS", "format": "cell-based", "conditions": "for transgene activation with higher PBS copy numbers: 15, 20, and 47 copies of PBS", "excerpt": "In particular, to test whether appending PBS to the 3′ end of sgRNA affects sgRNA function, a series of modified Tet-targeting (sgTetO) or non-targeting control (sgControl) sgRNA were generated, […] domain-binding sequence (PBS) for PUF (3-2) (also simply referred to as PUFa) [PBS32 or PBSa: SEQ ID NO:8 (5′-UGUAUgUA-3′)], PUF(6-2/7-2) (also simply referred to as PUFb) [PBS6272 or PBSb: SEQ ID NO:9 (5′-UugAUAUA-3′)].\nCells were transfected with dCas9-VP64 with the different sgRNA scaffolds, and were analyzed by fluorescent-activated cell sorting (FACS) two days after transfection (FIG. 1B).\nCell Culture for Experiments. HEK293T cells were cultivated in Dulbecco's modified Eagle's medium (DMEM)(Sigma) with 10% fetal bovine serum (FBS)(Lonza), 4% Glutamax (Gibco), 1% Sodium Pyruvate (Gibco) and penicillin-streptomycin (Gibco). Incubator conditions were 37° C. and 5% CO2. For activation experiments, cells were seeded into 12-well plates at 100,000 cells per well the day before being transfected with 200 ng of dCas9 construct, 100 ng of modified sgRNA and 100 ng of PUF-fusion with Attractene transfection reagent (Qiagen). After transfection, cells were grown for 48 hrs and harvested for either RNA extraction or fluorescent-activated cell sorting (FACS). For dual activation-repression experiments, transfection remained the same, however cells were seeded into 12-well plates at 150,000 cells per well and were grown for 72 hrs before being harvested for FACS. For experiments with OCT4 and SOX2 dual activation-repression, cells were triple-sorted by BFP (for the activator-repressor module PUFb-p65HSF1/BFPKRAB-PUFa), mCherry (for dCas9mCherry) and GFP (for the sgRNA-PBS on vectors co-expressing EGFP) before RNA extraction. […]\nFluorescent-Activated Cell Sorting. […] Samples were analyzed on a FACScalibur flow cytometer using CellQuest Pro software (BD Bioscience). […] were collected in each run."}, "[3]": {"test_system": "5′-UGUGUGUG-3′ RNA (SEQ ID NO:13)", "conditions": "cited from earlier work"}, "[4]": {"test_system": "SOX2 gene expression (SOX2 promoter) in HEK293T cells", "experiment": "SOX2 expression by quantitative reverse-transcription PCR after Dnmt effector targeting", "format": "cell-based", "conditions": "guides targeting SOX2 promoter, compared to direct dCas9 fusions", "method": "Establishment of a dCas9-expressing cell line. The day prior to transfection, Lenti-X 293T cells were seeded into 6-well plates at 1.2 million cells per well. The cells were transfected with the supercoiled packaging plasmids (pLP1 (gag/pol), pLP2 (rev), and VSV-G (envelope)) and a dCas9 lentiviral expression plasmid through Lipofectamine 3000 reagent (Invitrogen). At 6 h posttransfection, medium was exchanged for fresh. At 24 h posttransfection, 2 ml of medium containing the lentivirus were collected and centrifuged for 10 minutes at 2,000 rpm to remove cellular debris. The supernatant was filtered utilizing a […] pore filter (Millipore), and the lentivirus was frozen at −80° C. until needed. HEK293T cells, seeded into a 12-well plate at 150,000 cells per well, were transduced with 500 μl of the dCas9 lentivirus in culture medium supplemented with 5 μg/ml polybrene for 12 hours, and subsequently selected with Blasticidin antibiotics on the third day post transduction.\nTransfection. HEK293T, and HEK293T/dCas9 cell lines were seeded into 12-well plates at 150,000 cells per well. […] At 3 day post-transfection, the cells were sorted for GFP (sgRNA expression constructs are marked by GFP) with fluorescence-activated cell sorting (FACS) and re-plated into 12 or 24-well plates.\nQuantitative reverse-transcription PCR. […]"}}, "data": [{"molecule": "Nc1ncn([C@@H]2O[C@H](CO)[C@@H](O)[C@H]2O)c(=O)n1", "note": "[5′azacytidine, 5-Azacytidine]", "values": [{"measurement": "frequency of bisulfite conversion (cytosine demethylation) at CpGs of hMLH1 promoter", "setting": "[1]", "result": "increased bisulfite conversion frequency on multiple CpG sites within the promoter region"}]}, {"molecule": "B1", "values": [{"measurement": "transgene activation with higher PBS copy numbers", "setting": "[2]", "result": "slightly lower, albeit still substantial transgene activation"}, {"measurement": "activation of TetO::tdTomato with only one PBSa", "setting": "[2]; sgRNA with one PBSa", "result": "not observed"}]}, {"molecule": "B2", "values": [{"measurement": "transgene activation with higher PBS copy numbers", "setting": "[2]", "result": "slightly lower, albeit still substantial transgene activation"}]}, {"molecule": "B3", "values": [{"measurement": "affinity for new target RNA sequence compared to wild type PUF RNA", "setting": "[3]", "result": "very high affinity"}]}, {"molecule": "B4", "values": [{"measurement": "repression of SOX2 gene expression", "setting": "[4]", "result": "more robust repression of SOX2 gene expression compared to direct fusions"}]}]}
